T1: His-tagged GAI (Arabidopsis thaliana, UniProt Q9LQT8 1-533)
T1 construct: GAI of A. thaliana; also called His-GAI; His-tagged AtGAI; source: E. coli BL21, purified (Ni-NTA agarose)
T1 sequence (looked up): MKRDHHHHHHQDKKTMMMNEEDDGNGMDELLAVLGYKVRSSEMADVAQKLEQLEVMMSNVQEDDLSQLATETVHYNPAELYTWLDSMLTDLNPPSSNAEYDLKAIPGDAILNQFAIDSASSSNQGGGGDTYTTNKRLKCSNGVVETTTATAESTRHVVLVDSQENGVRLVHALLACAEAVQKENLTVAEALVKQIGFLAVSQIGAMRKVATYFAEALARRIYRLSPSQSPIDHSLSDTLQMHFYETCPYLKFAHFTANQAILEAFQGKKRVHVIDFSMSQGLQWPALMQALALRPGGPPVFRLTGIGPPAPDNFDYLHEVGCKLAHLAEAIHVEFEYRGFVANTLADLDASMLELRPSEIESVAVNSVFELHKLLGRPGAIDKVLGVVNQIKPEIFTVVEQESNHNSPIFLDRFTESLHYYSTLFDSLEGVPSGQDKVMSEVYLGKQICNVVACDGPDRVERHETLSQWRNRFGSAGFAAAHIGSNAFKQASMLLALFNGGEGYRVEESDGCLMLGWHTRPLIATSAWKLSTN


Assays:
[1] = biological target: Marchantia polymorpha MpDELLA (yeast prey fusion); assay: yeast 2-hybrid; details: parent: est. 180; read off a plot
[2] = biological target: A. thaliana GAI (yeast prey fusion) (UniProt Q9LQT8); assay: yeast 2-hybrid; details: parent: est. 37; read off a plot
His-tagged GAI [3] = biological target: T1, His-tagged GAI; assay: pull-down; 5 μg His-GAI held on Ni-NTA agarose, 5 μg MBP-SLY1/sly1 added with an equal amount of GST-GID1C and 0.1 mM GA3, 1 h at 4 °C, immunoblot with anti-His, anti-MBP and anti-GST; details: both partners purified
His-tagged GAI [4] = biological target: T1, His-tagged GAI; assay: pull-down; 5 μg His-GAI/gai held on Ni-NTA agarose, 5 μg MBP-SLY1/sly1 added, 1 h at 4 °C, five washes, immunoblot with anti-His and anti-MBP; details: both partners purified

| response (β-galactosidase units) [1] | binding result (His-tagged GAI [4]) | Molecule | also measured |
| --- | --- | --- | --- |
| 130 |  | Marchantia polymorpha MpSLY1 (yeast bait fusion) H147K |  |
| 50 |  | Marchantia polymorpha MpSLY1 (yeast bait fusion) R118P |  |
| 100 |  | Marchantia polymorpha MpSLY1 (yeast bait fusion) S149T |  |

Second part, the molecule before the results:

| Molecule | response (β-galactosidase units) [1] | binding result (His-tagged GAI [4]) | also measured |
| --- | --- | --- | --- |
| Marchantia polymorpha MpSLY1 (yeast bait fusion) Y108F |  |  | response (β-galactosidase units) [2]: 17 |
| GST-GID1C (receptor, Arabidopsis thaliana, UniProt Q940G6 1-344, looked up, GID1C, gibberellin receptor of A. thaliana; Used together with 0.1 mM GA3; also called GST-AtGID1C; source: E. coli BL21, purified (glutathione beads)) MAGSEEVNLIESKTVVPLNTWVLISNFKLAYNLLRRPDGTFNRHLAEFLDRKVPANANPVNGVFSFDVIIDRQTNLLSRVYRPADAGTSPSITDLQNPVDGEIVPVIVFFHGGSFAHSSANSAIYDTLCRRLVGLCGAVVVSVNYRRAPENRYPCAYDDGWAVLKWVNSSSWLRSKKDSKVRIFLAGDSSGGNIVHNVAVRAVESRIDVLGNILLNPMFGGTERTESEKRLDGKYFVTVRDRDWYWRAFLPEGEDREHPACSPFGPRSKSLEGLSFPKSLVVVAGLDLIQDWQLKYAEGLKKAGQEVKLLYLEQATIGFYLLPNNNHFHTVMDEIAAFVNAECQ |  |  | binding result (His-tagged GAI [3]): binds |
| MBP-tagged AtSLY1 (natural protein, Arabidopsis thaliana, UniProt Q9STX3 1-151, looked up, AtSLY1 of A. thaliana; also called MBP-SLY1; source: E. coli BL21, purified (amylose resin)) MKRSTTDSDLAGDAHNETNKKMKSTEEEEIGFSNLDENLVYEVLKHVDAKTLAMSSCVSKIWHKTAQDERLWELICTRHWTNIGCGQNQLRSVVLALGGFRRLHSLYLWPLSKPNPRARFGKDELKLTLSLLSIRYYEKMSFTKRPLPESK |  | binds |  |
| MBP-sly1^gar2-1 (E138K) (natural protein, Arabidopsis thaliana, UniProt Q9STX3 1-151, looked up, AtSLY1 of A. thaliana with E138K; cloned into pMAL-c2X; also called MBP-tagged Atsly1^gar2-1; source: E. coli BL21, purified (amylose resin)) MKRSTTDSDLAGDAHNETNKKMKSTEEEEIGFSNLDENLVYEVLKHVDAKTLAMSSCVSKIWHKTAQDERLWELICTRHWTNIGCGQNQLRSVVLALGGFRRLHSLYLWPLSKPNPRARFGKDELKLTLSLLSIRYYKKMSFTKRPLPESK |  | binds |  |
| MBP-tagged Atsly1^H104Y (natural protein, Arabidopsis thaliana, UniProt Q9STX3 1-151, looked up, AtSLY1 of A. thaliana with H104Y; cloned into pMAL-c2X; source: E. coli BL21, purified (amylose resin)) MKRSTTDSDLAGDAHNETNKKMKSTEEEEIGFSNLDENLVYEVLKHVDAKTLAMSSCVSKIWHKTAQDERLWELICTRHWTNIGCGQNQLRSVVLALGGFRRLYSLYLWPLSKPNPRARFGKDELKLTLSLLSIRYYEKMSFTKRPLPESK |  | binds |  |
